Assay results taken from patent publication US20100136663.

Target: T1, ZFP-CRP Del 180 (CRP 1-180 fused to human zinc fingers ZFP1/ZFP2) (Escherichia coli / Homo sapiens) (UniProt P0ACJ8)
T1 sequence: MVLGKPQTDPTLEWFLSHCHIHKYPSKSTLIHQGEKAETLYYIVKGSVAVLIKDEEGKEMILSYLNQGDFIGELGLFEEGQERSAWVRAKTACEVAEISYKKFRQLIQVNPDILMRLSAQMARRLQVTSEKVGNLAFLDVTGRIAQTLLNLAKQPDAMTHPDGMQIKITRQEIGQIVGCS
Assay: cell_activity

Row | Sequence | activity (fold activation) (E. coli EGFP reporter without IPTG, 2-fold with 1 mM IPTG, assignment of SEQ 7 to pEGFP-A inferred) | activity (fold repression) (E. coli EGFP reporter with 1 mM IPTG, assignment of SEQ 8 to pEGFP-R inferred)
1 | ATCGATAAGCTTGCGGCGGGGGCGGCGGGGACTCCCCATCCCCCTGTTGACAATTAATCATCGGCTCGTATAATGTGTGGAATTGTGAGCGGATAACAATTTCACACAGGAAACAGGATCAAATTATGCCTGTCGAC (double strand) | 3 | 
2 | ATCGATAAGCTTACTCCCCATCCCCCTGTTGACAATTAATCATCGGCTCGTATAATGTGTGGAATTGTGAGCGGATAACAATTTCGCGGCGGGGGCGGCGGGGACACAGGAAACAGGATCAAATTATGCCTGTCGAC (double strand) |  | 1.5
